B1: mAb 12G3H11, human anti-human EphA2 monoclonal antibody, wild type hinge (antibody, human IgG1, V domains shown)
VH: QMQLVQSGPEVKKPGTSVKVSCKASGFTFDDYSMNWVRQARGQRLEWIGFIRNKANDYTTEYADSVKGRVTITRDMSTSTAYMELSSLRSEDTAVYYCARYPRHHAMDSWGQGTSVTVSS
VL: DIQMTQSPSSLSASVGDRVTITCRASQSISNNLHWYQQKPGKAPKLLIKYAFQSISGVPSRFSGSGSGTDFTFTISSLQPEDFATYYCQQANSWPLTFGGGTKVEIK
notes: Human IgG1/kappa expressed in HEK 293 cells; also called Wild type (12G3H11); 12G3H11 “wild type”; not shown: human kappa light chain constant region
B2: 12G3H11 Fc variant 11-4 AA Delete (antibody, IgG1)
heavy (part 1 of 2): QMQLVQSGPEVKKPGTSVKVSCKASGFTFDDYSMNWVRQARGQRLEWIGFIRNKANDYTTEYADSVKGRVTITRDMSTSTAYMELSSLRSEDTAVYYCARYPRHHAMDSWGQGTSVTVSS
heavy (part 2 of 2): not shown
light: DIQMTQSPSSLSASVGDRVTITCRASQSISNNLHWYQQKPGKAPKLLIKYAFQSISGVPSRFSGSGSGTDFTFTISSLQPEDFATYYCQQANSWPLTFGGGTKVEIK
notes: domain: lower hinge, CH2, CH3; 12G3H11 IgG1/kappa; T223, H224, P227 and P228 deleted; not shown: human IgG1 heavy chain constant region, CH1 up to EU 215; human IgG1 heavy chain constant region from EU 231 (lower hinge, CH2, CH3); human kappa light chain constant region
B3: 12G3H11 Fc variant 13-2 AA Delete Mid (antibody, IgG1)
heavy (part 1 of 2): QMQLVQSGPEVKKPGTSVKVSCKASGFTFDDYSMNWVRQARGQRLEWIGFIRNKANDYTTEYADSVKGRVTITRDMSTSTAYMELSSLRSEDTAVYYCARYPRHHAMDSWGQGTSVTVSS
heavy (part 2 of 2): not shown
light: DIQMTQSPSSLSASVGDRVTITCRASQSISNNLHWYQQKPGKAPKLLIKYAFQSISGVPSRFSGSGSGTDFTFTISSLQPEDFATYYCQQANSWPLTFGGGTKVEIK
notes: domain: lower hinge, CH2, CH3; 12G3H11 IgG1/kappa; T223 and H224 deleted; not shown: human IgG1 heavy chain constant region, CH1 up to EU 215; human IgG1 heavy chain constant region from EU 231 (lower hinge, CH2, CH3); human kappa light chain constant region
B4: 12G3H11 Fc variant 5-GGG Insert Low (antibody, IgG1)
heavy (part 1 of 2): QMQLVQSGPEVKKPGTSVKVSCKASGFTFDDYSMNWVRQARGQRLEWIGFIRNKANDYTTEYADSVKGRVTITRDMSTSTAYMELSSLRSEDTAVYYCARYPRHHAMDSWGQGTSVTVSS
heavy (part 2 of 2): not shown
light: DIQMTQSPSSLSASVGDRVTITCRASQSISNNLHWYQQKPGKAPKLLIKYAFQSISGVPSRFSGSGSGTDFTFTISSLQPEDFATYYCQQANSWPLTFGGGTKVEIK
notes: domain: lower hinge, CH2, CH3; 12G3H11 IgG1/kappa; GGG inserted between P227 and P228; not shown: human IgG1 heavy chain constant region, CH1 up to EU 215; human IgG1 heavy chain constant region from EU 231 (lower hinge, CH2, CH3); human kappa light chain constant region
B5: 12G3H11 Fc variant 14-T to C Middle (antibody, IgG1)
heavy (part 1 of 2): QMQLVQSGPEVKKPGTSVKVSCKASGFTFDDYSMNWVRQARGQRLEWIGFIRNKANDYTTEYADSVKGRVTITRDMSTSTAYMELSSLRSEDTAVYYCARYPRHHAMDSWGQGTSVTVSS
heavy (part 2 of 2): not shown
light: DIQMTQSPSSLSASVGDRVTITCRASQSISNNLHWYQQKPGKAPKLLIKYAFQSISGVPSRFSGSGSGTDFTFTISSLQPEDFATYYCQQANSWPLTFGGGTKVEIK
notes: domain: lower hinge, CH2, CH3; 12G3H11 IgG1/kappa; T223C; not shown: human IgG1 heavy chain constant region, CH1 up to EU 215; human IgG1 heavy chain constant region from EU 231 (lower hinge, CH2, CH3); human kappa light chain constant region
B6: 12G3H11 Fc variant 6-GGG Insert High (antibody, IgG1)
heavy (part 1 of 2): QMQLVQSGPEVKKPGTSVKVSCKASGFTFDDYSMNWVRQARGQRLEWIGFIRNKANDYTTEYADSVKGRVTITRDMSTSTAYMELSSLRSEDTAVYYCARYPRHHAMDSWGQGTSVTVSS
heavy (part 2 of 2): not shown
light: DIQMTQSPSSLSASVGDRVTITCRASQSISNNLHWYQQKPGKAPKLLIKYAFQSISGVPSRFSGSGSGTDFTFTISSLQPEDFATYYCQQANSWPLTFGGGTKVEIK
notes: domain: lower hinge, CH2, CH3; 12G3H11 IgG1/kappa; GGG inserted between D(Kabat 234) and K222; not shown: human IgG1 heavy chain constant region, CH1 up to EU 215; human IgG1 heavy chain constant region from EU 231 (lower hinge, CH2, CH3); human kappa light chain constant region
B7: 12G3H11 Fc variant 18-EPKS to PPPP (antibody, IgG1)
heavy (part 1 of 2): QMQLVQSGPEVKKPGTSVKVSCKASGFTFDDYSMNWVRQARGQRLEWIGFIRNKANDYTTEYADSVKGRVTITRDMSTSTAYMELSSLRSEDTAVYYCARYPRHHAMDSWGQGTSVTVSS
heavy (part 2 of 2): not shown
light: DIQMTQSPSSLSASVGDRVTITCRASQSISNNLHWYQQKPGKAPKLLIKYAFQSISGVPSRFSGSGSGTDFTFTISSLQPEDFATYYCQQANSWPLTFGGGTKVEIK
notes: domain: lower hinge, CH2, CH3; 12G3H11 IgG1/kappa; EPKS replaced by PPPP; not shown: human IgG1 heavy chain constant region, CH1 up to EU 215; human IgG1 heavy chain constant region from EU 231 (lower hinge, CH2, CH3); human kappa light chain constant region

Some results are limits rather than exact numbers.

T1 sequence (P29317 25-534 limits assumed): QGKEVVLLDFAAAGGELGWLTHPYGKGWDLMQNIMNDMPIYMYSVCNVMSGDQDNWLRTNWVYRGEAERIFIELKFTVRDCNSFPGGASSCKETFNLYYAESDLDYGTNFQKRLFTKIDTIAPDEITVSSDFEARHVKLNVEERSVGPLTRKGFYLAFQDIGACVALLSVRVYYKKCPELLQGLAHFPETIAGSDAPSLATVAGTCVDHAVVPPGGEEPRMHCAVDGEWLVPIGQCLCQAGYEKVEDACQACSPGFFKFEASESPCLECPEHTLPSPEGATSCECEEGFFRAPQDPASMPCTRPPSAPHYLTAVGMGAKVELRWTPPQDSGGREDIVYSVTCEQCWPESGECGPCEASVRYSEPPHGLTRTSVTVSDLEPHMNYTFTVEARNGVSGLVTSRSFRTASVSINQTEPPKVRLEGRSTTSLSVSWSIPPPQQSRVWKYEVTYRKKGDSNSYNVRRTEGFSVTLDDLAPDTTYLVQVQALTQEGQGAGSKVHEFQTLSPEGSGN

The assay concerns the target T1, human EphA2-Fc (human, UniProt P29317 25-534, limits assumed).
T1 construct: Coated on Azlactone beads and titrated in solution in KinExA; not shown: Fc part
Nature of the assay: KinExA, EphA2-Fc beads, solution equilibrium titration. On the procedure: Protein concentrations were calculated by the BCA method. […] Coated beads were then separated from unreacted EphA2-Fc using a gentle pulse spin and blocked for approximately 2 h at room temperature with 1 M Tris, pH 8.0, bovine serum albumin 10 mg/mL. Beads were then resuspended in 30 mL of run buffer (PBS, pH 7.4-0.02% NaN₃) and packed into a column. […] The amount of free IgG in the samples was derived from the fluorescence signal obtained after the passing of Cy5-labeled goat anti-human IgG F(ab′)₂ (typically 0.5-2 μg/ml; Jackson ImmunoResearch Laboratories, West Grove, Pa.) through the column.
(A kinetic exclusion assay measures how much of one partner remains free in solution.)
In the case of B1, binding was put at a Kd of 1.1 pM. In other words, the picomolar range.
As to B2, the Kd was no more than 1 pM.
Under B3 stands 1.7 pM; under B4, 0.8 pM; under B5, 7.2 pM.
The same measure for B6: 2.7 pM.
The same measure for B7: 1.5 pM.

A word on the Kd: it is the free concentration of one partner at which half of the binding sites on the other are occupied at equilibrium, for simple one-to-one binding.

Values taken from US20110077383A1 (AstraZeneca / MedImmune, published 2011).
